In general, stoichiometry N refers to the number of molecules, sites or subunits per partner or assembly.

Where “and” joins values, the source holds several entries; their conditions need not be identical. Equal entries are not always repeated.

The target of this test is mouse Flower isoform 4 with C-terminal mTFP (mFwe4-mTFP) (mouse). The test can be described thus: native gel or EMSA; native PAGE (4-16% Bis-Tris, G-250 additive) of lysates of transfected Fwe KO mouse CTLs (modified RIPA: 50 mM Tris pH 7.5, 50 mM NaCl, 1% Triton-X-100, 1 mM EDTA), western blot with anti-DsRed recognising mTFP; oligomeric state read from band size. (In general: In EMSA bound probe runs differently from free probe, usually more slowly.)

Sequence of mouse Flower isoform 4 with C-terminal mTFP (mFwe4-mTFP) (natural protein) (Q8BG21 whole entry, canonical isoform): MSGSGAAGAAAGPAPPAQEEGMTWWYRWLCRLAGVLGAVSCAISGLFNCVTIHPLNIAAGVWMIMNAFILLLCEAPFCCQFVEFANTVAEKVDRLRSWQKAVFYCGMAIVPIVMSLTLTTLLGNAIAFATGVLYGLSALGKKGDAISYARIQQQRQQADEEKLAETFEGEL

With “mouse Flower isoform 4 with C-terminal mTFP (mFwe4-mTFP) (natural protein)”, the stoichiometry N was 4 and 6.

The values are drawn from article PMC11655906.
